The record followed here is paper PMC10943538 (Plant Communications, 2023).

First the molecules themselves.
B2: His-MYB75 (natural protein, Arabidopsis thaliana, UniProt Q9FE25 1-248, looked up)
chain: MEGSSKGLRKGAWTTEEDSLLRQCINKYGEGKWHQVPVRAGLNRCRKSCRLRWLNYLKPSIKRGKLSSDEVDLLLRLHRLLGNRWSLIAGRLPGRTANDVKNYWNTHLSKKHEPCCKIKMKKRDITPIPTTPALKNNVYKPRPRSFTVNNDCNHLNAPPKVDVNPPCLGLNINNVCDNSIIYNKDKKKDQLVNNLIDGDNMWLEKFLEESQEVDILVPEATTTEKGDTLAFDVDQLWSLFDGETVKFD

Common to all, as to experiment: pull-down
One test addresses T1, MBP-MYB75 (Arabidopsis thaliana, UniProt Q9FE25 1-248).
T1 sequence (looked up): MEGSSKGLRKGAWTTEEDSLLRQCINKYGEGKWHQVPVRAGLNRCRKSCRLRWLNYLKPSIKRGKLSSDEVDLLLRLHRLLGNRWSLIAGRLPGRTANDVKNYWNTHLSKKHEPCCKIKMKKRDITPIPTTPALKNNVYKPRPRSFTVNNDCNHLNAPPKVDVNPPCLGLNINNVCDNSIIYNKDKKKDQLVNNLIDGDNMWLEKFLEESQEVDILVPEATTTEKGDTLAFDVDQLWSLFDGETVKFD

The test “His-MYB75” has as its target B2.
For another test, the target named is T2, TT8-MBP (Arabidopsis thaliana, UniProt Q9FT81 1-518).
T2 sequence (looked up): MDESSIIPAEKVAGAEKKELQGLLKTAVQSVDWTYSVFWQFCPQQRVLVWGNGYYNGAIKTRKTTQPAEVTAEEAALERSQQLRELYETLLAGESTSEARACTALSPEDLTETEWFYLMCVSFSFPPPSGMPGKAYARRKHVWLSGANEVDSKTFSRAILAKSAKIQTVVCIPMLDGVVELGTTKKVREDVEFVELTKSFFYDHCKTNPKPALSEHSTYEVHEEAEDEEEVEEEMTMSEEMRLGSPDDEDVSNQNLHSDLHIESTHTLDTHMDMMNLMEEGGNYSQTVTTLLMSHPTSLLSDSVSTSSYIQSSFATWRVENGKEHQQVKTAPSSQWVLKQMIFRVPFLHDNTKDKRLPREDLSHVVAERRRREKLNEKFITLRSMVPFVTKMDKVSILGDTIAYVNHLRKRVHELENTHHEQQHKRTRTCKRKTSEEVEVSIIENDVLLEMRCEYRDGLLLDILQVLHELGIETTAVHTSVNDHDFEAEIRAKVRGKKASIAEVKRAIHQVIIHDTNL

The next test has as its target T3, EGL3-MBP (Arabidopsis thaliana, UniProt Q9CAD0 1-596).
T3 sequence (looked up): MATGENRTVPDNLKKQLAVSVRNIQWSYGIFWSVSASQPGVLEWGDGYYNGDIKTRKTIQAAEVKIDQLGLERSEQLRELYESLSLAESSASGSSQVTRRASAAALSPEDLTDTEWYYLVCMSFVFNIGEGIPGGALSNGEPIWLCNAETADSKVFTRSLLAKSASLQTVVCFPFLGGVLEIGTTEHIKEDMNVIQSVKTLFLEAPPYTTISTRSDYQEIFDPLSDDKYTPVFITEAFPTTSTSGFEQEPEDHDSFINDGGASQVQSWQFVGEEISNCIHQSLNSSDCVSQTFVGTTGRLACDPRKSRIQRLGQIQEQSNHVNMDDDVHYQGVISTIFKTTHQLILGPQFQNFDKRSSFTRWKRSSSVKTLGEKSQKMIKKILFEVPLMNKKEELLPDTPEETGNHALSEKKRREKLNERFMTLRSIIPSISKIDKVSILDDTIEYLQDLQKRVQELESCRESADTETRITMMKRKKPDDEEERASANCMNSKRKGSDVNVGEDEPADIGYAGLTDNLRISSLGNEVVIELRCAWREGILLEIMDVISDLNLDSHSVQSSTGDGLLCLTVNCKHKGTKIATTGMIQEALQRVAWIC

B1: GST-MYB30^N (domain or fragment)
chain: not shown
With B1, the binding result with MBP-MYB75 and with His-MYB75 was “binds” throughout.
As to B2, the binding result with TT8-MBP and with EGL3-MBP was “binds” in each case.
